Data on one molecule can be found in PMC3515690 (Nature structural & molecular biology, 2012).

In assay [1] the target is T1, Atg7 with a Gly-Gly-Ser-Gly insertion after Leu291 (S. cerevisiae, UniProt P38862 1-630, Gly-Gly-Ser-Gly insertion after Atg7’s Leu291).
T1 sequence (looked up): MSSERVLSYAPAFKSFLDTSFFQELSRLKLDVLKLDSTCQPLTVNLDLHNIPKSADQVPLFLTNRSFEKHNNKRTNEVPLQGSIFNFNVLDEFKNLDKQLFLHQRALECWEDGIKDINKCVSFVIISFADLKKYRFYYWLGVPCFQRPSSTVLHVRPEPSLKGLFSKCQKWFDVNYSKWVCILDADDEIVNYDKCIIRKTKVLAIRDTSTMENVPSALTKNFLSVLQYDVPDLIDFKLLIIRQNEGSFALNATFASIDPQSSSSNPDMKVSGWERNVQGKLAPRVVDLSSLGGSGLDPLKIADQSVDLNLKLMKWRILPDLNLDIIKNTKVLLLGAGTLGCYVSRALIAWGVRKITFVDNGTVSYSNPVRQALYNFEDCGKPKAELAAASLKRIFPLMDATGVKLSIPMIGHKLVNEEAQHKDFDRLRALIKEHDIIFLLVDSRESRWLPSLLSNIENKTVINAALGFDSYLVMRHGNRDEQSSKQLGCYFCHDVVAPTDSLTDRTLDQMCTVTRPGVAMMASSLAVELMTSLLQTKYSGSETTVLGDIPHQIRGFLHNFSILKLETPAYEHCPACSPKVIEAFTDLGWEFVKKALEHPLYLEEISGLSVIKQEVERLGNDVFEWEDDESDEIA
In words: cross-linking.

In the next assay the target is T2, Atg7 (residues 1–613) (S. cerevisiae, UniProt P38862 1-613, catalytic Cys507 linked through bismaleimidoethane (BMOE) to Atg3 Cys234).
T2 sequence (looked up): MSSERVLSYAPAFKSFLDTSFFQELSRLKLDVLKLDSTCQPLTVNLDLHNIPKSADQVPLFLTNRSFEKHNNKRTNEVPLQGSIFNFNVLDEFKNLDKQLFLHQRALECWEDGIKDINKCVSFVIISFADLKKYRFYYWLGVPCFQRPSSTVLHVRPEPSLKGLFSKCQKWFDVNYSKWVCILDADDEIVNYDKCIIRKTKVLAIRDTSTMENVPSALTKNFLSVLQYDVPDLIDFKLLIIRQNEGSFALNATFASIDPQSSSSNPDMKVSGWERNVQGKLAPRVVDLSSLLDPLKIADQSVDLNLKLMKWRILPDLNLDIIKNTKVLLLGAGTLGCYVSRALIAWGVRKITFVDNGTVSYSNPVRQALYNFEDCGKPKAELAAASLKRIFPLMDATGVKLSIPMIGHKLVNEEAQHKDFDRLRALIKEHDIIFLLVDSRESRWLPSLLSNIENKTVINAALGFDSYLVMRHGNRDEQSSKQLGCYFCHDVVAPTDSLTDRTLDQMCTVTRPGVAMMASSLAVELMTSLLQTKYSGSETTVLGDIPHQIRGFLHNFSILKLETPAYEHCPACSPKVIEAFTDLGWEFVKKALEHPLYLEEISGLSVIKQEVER
Briefly: crystal structure.

B1: Atg3(C41A C76A C83A) (enzyme, S. cerevisiae)
chain: MIRSTLSSWREYLTPITHKSTFLTTGQITPEEFVQAGDYLAHMFPTWKWNEESSDISYRDFLPKNKQFLIIRKVPADKRAEQAVEVEGPDVIMKGFAEDGDEDDVLEYIGSETEHVQSTPAGGTKDSSIDDIDELIQDMEIKEEDENDDTEEFNAKGGLAKDMAQERYYDLYIAYSTSYRVPKMYIVGFNSNGSPLSPEQMFEDISADYRTKTATIEKLPFYKNSVLSVSIHPCKHANVMKILLDKVRVVRQRRRKELQEEQELDGVGDWEDLQDDIDDSLRVDQYLIVFLKFITSVTPSIQHDYTMEGW
modifications: Cys234 reacted with bismaleimidoethane (BMOE)
For B1, the binding result (in assay [1]; in the assay with Atg7 (residues 1–613)) was “binds” throughout.
